Reference: article PMC9529347

Biological target: SARS-CoV-1 RBD-Fc (RBD N321-P513 fused to CH2 and CH3 of mouse IgG1) (SARS-CoV-1)
Test: SPR

Sequence of soluble human ACE2, truncated ectodomain (S19-D615), C-terminal 6xHIS-tag (Q9BYF1 19-615): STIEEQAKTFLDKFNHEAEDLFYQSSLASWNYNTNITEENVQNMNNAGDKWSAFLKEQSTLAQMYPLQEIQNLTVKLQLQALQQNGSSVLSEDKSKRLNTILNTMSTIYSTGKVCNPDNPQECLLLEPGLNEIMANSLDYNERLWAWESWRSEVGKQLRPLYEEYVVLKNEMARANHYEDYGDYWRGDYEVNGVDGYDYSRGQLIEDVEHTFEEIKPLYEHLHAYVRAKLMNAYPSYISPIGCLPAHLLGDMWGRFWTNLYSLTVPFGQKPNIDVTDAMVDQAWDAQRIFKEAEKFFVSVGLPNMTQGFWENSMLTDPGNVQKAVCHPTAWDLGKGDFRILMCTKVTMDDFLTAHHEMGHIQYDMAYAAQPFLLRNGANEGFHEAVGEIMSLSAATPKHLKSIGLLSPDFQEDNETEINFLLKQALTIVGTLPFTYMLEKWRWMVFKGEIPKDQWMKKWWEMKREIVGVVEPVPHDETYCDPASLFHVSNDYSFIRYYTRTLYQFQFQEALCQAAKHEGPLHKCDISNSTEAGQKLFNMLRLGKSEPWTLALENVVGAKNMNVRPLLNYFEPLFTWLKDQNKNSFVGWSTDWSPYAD

Question: Which Kd does the source give for “soluble human ACE2, truncated ectodomain (S19-D615), C-terminal 6xHIS-tag (from UniProt Q9BYF1 19-615) (receptor)” here?
Answer: The Kd was 385 nM.
